Laboratory results reported in paper PMC9177699, “Dynamic interplay between the periplasmic chaperone SurA and the BAM complex in outer membrane protein folding” (Communications Biology, 2022).
One block for each binder: values may come before it.

Assays:
[1] = target: T1, β-barrel assembly machinery (BAM) complex, BamABCDE (E. coli, UniProt P0A940 21-810; P77774 20-392; P0A903 25-344; P0AC02 20-245; P0A937 20-113); assay: cell-based or functional assay
BAM complex (BamABCDE) = BAM complex (BamABCDE) (E. coli, UniProt P0A940 21-810; P77774 20-392; P0A903 25-344; P0AC02 20-245; P0A937 20-113); assay: MST; 400 nM Alexa Fluor 488-labelled SurA variant, BAM complex titrated 25 µM-1 nM in proteoliposomes of E. coli polar lipid extract, 150 mM NaCl, 20 mM Tris-HCl, pH 8.0, 25 °C; BAM concentration taken as 50 % of the total for fitting; 1:1 quadratic binding model; details: both partners purified
[2] = target: T1, β-barrel assembly machinery (BAM) …; assay: MST; BAM reconstituted in proteoliposomes of E. coli polar lipid extract titrated (25 µM–1 nM) against 400 nM Alexa Fluor 488-labelled SurA variant; TBS pH 8.0, 25 °C; 1:1 quadratic binding model; details: both partners purified
[3] = target: T1, β-barrel assembly machinery (BAM) …; assay: MST; BAM in DDM micelles titrated (1.6 nM–52 μM) against 400 nM Alexa Fluor 488-labelled Cys-SurA variant; 0.02% (v/v) DDM, 150 mM NaCl, 20 mM Tris–HCl, pH 8, 25 °C; 1:1 quadratic binding model; details: both partners purified

B1: SurA-WT (wild-type SurA, residues 21-428, His-tag cleaved) (natural protein)
chain: APQVVDKVAAVVNNGVVLESDVDGLMQSVKLNAAQARQQLPDDATLRHQIMERLIMDQIILQMGQKMGVKISDEQLDQAIANIAKQNNMTLDQMRSRLAYDGLNYNTYRNQIRKEMIISEVRNNEVRRRITILPQEVESLAQQVGNQNDASTELNLSHILIPLPENPTSDQVNEAESQARAIVDQARNGADFGKLAIAHSADQQALNGGQMGWGRIQELPGIFAQALSTAKKGDIVGPIRSGVGFHILKVNDLRGESKNISVTEVHARHILLKPSPIMTDEQARVKLEQIAADIKSGKTTFAAAAKEFSQDPGSANQGGDLGWATPDIFDPAFRDALTRLNKGQMSAPVHSSFGWHLIELLDTRNVDKTDAAQKDRAYRMLMNRKFSEEAASWMQEQRASAYVKILSN
rate of BAM-mediated folding of tOmpA into proteoliposomes (cold SDS–PAGE), without SurA-WT against with 10 μM SurA-WT [1]: ~6 fold

B2: Alexa Fluor 488-labelled Cys-SurA-∆P2 (domain or fragment)
chain: GCAPQVVDKVAAVVNNGVVLESDVDGLMQSVKLNAAQARQQLPDDATLRHQIMERLIMDQIILQMGQKMGVKISDEQLDQAIANIAKQNNMTLDQMRSRLAYDGLNYNTYRNQIRKEMIISEVRNNEVRRRITILPQEVESLAQQVGNQNDASTELNLSHILIPLPENPTSDQVNEAESQARAIVDQARNGADFGKLAIAHSADQQALNGGQMGWGRIQELPGIFAQALSTAKKGDIVGPIRSGVGFHILKVNDLRGESKNIDAAQKDRAYRMLMNRKFSEEAASWMQEQRASAYVKILSN
modifications: Alexa Fluor 488 (C5 maleimide) on the added N-terminal cysteine
notes: glycine left after TEV cleavage (ENLYFQG) and the cysteine added immediately following the TEV cleavage site; the order G-C is worked out from the text; gene numbering including the signal peptide; not shown: His6, N-terminal, cleaved
Kd (BAM complex (BamABCDE)): 1200 nM

B5: Alexa Fluor 488-labelled Cys-SurA-core (domain or fragment)
chain: GCAPQVVDKVAAVVNNGVVLESDVDGLMQSVKLNAAQARQQLPDDATLRHQIMERLIMDQIILQMGQKMGVKISDEQLDQAIANIAKQNNMTLDQMRSRLAYDGLNYNTYRNQIRKEMIISEVRNNEVRRRITILPQEVESLAQQVGNQNDASDAAQKDRAYRMLMNRKFSEEAASWMQEQRASAYVKILSN
modifications: Alexa Fluor 488 (C5 maleimide) on the added N-terminal cysteine
notes: as for B2
Kd (BAM complex (BamABCDE)): 700 nM

B6: Alexa Fluor 488-labelled Cys-SurA-∆P1 (domain or fragment)
chain: GCAPQVVDKVAAVVNNGVVLESDVDGLMQSVKLNAAQARQQLPDDATLRHQIMERLIMDQIILQMGQKMGVKISDEQLDQAIANIAKQNNMTLDQMRSRLAYDGLNYNTYRNQIRKEMIISEVRNNEVRRRITILPQEVESLAQQVGNQNDASSVTEVHARHILLKPSPIMTDEQARVKLEQIAADIKSGKTTFAAAAKEFSQDPGSANQGGDLGWATPDIFDPAFRDALTRLNKGQMSAPVHSSFGWHLIELLDTRNVDKTDAAQKDRAYRMLMNRKFSEEAASWMQEQRASAYVKILSN
modifications: Alexa Fluor 488 (C5 maleimide) on the added N-terminal cysteine
notes: as for B2
Kd (BAM complex (BamABCDE)): 600 nM

More lines, now with the values ahead:

binding result [2]: binds
B3: Alexa Fluor 488-labelled Cys-SurA-∆P2 (domain or fragment)
chain: CAPQVVDKVAAVVNNGVVLESDVDGLMQSVKLNAAQARQQLPDDATLRHQIMERLIMDQIILQMGQKMGVKISDEQLDQAIANIAKQNNMTLDQMRSRLAYDGLNYNTYRNQIRKEMIISEVRNNEVRRRITILPQEVESLAQQVGNQNDASTELNLSHILIPLPENPTSDQVNEAESQARAIVDQARNGADFGKLAIAHSADQQALNGGQMGWGRIQELPGIFAQALSTAKKGDIVGPIRSGVGFHILKVNDLRGESKNIDAAQKDRAYRMLMNRKFSEEAASWMQEQRASAYVKILSN
modifications: Alexa Fluor 488 on the added N-terminal cysteine (maleimide)
notes: cysteine residue added immediately following the TEV cleavage site; numbers are the gene numbering (including the signal peptide); A G of the TEV site probably precedes the added cysteine after cleavage (surmised); not shown: His6, N-terminal, cleaved

rate of BAM-catalysed folding of tOmpA into proteoliposomes (cold SDS–PAGE), with SurA-∆P2 against SurA-WT [1]: ~3 fold
B4: SurA-∆P2 (SurA 21-428 without residues 281-389, His-tag cleaved) (domain or fragment)
chain: APQVVDKVAAVVNNGVVLESDVDGLMQSVKLNAAQARQQLPDDATLRHQIMERLIMDQIILQMGQKMGVKISDEQLDQAIANIAKQNNMTLDQMRSRLAYDGLNYNTYRNQIRKEMIISEVRNNEVRRRITILPQEVESLAQQVGNQNDASTELNLSHILIPLPENPTSDQVNEAESQARAIVDQARNGADFGKLAIAHSADQQALNGGQMGWGRIQELPGIFAQALSTAKKGDIVGPIRSGVGFHILKVNDLRGESKNIDAAQKDRAYRMLMNRKFSEEAASWMQEQRASAYVKILSN

Kd [3]: 2600 ± 200 nM
B7: Alexa Fluor 488-labelled Cys-SurA-WT (natural protein)
chain: CAPQVVDKVAAVVNNGVVLESDVDGLMQSVKLNAAQARQQLPDDATLRHQIMERLIMDQIILQMGQKMGVKISDEQLDQAIANIAKQNNMTLDQMRSRLAYDGLNYNTYRNQIRKEMIISEVRNNEVRRRITILPQEVESLAQQVGNQNDASTELNLSHILIPLPENPTSDQVNEAESQARAIVDQARNGADFGKLAIAHSADQQALNGGQMGWGRIQELPGIFAQALSTAKKGDIVGPIRSGVGFHILKVNDLRGESKNISVTEVHARHILLKPSPIMTDEQARVKLEQIAADIKSGKTTFAAAAKEFSQDPGSANQGGDLGWATPDIFDPAFRDALTRLNKGQMSAPVHSSFGWHLIELLDTRNVDKTDAAQKDRAYRMLMNRKFSEEAASWMQEQRASAYVKILSN
modifications: Alexa Fluor 488 on the added N-terminal cysteine (maleimide)
notes: cysteine residue added immediately following the TEV cleavage site; numbers are the gene numbering (including the signal peptide); A G of the TEV site probably precedes the added cysteine after cleavage (surmised); also called Alexa Fluor 488-labelled SurA; not shown: His6, N-terminal, cleaved

binding result [2]: binds
B8: Alexa Fluor 488-labelled Cys-SurA-∆P1 (domain or fragment)
chain: CAPQVVDKVAAVVNNGVVLESDVDGLMQSVKLNAAQARQQLPDDATLRHQIMERLIMDQIILQMGQKMGVKISDEQLDQAIANIAKQNNMTLDQMRSRLAYDGLNYNTYRNQIRKEMIISEVRNNEVRRRITILPQEVESLAQQVGNQNDASSVTEVHARHILLKPSPIMTDEQARVKLEQIAADIKSGKTTFAAAAKEFSQDPGSANQGGDLGWATPDIFDPAFRDALTRLNKGQMSAPVHSSFGWHLIELLDTRNVDKTDAAQKDRAYRMLMNRKFSEEAASWMQEQRASAYVKILSN
modifications: Alexa Fluor 488 on the added N-terminal cysteine (maleimide)
notes: cysteine residue added immediately following the TEV cleavage site; numbers are the gene numbering (including the signal peptide); A G of the TEV site probably precedes the added cysteine after cleavage (surmised); also called SurA-ΔP1; not shown: His6, N-terminal, cleaved

Kd (BAM complex (BamABCDE)): 600 nM
B9: Alexa Fluor 488-labelled Cys-SurA-WT (natural protein)
chain: GCAPQVVDKVAAVVNNGVVLESDVDGLMQSVKLNAAQARQQLPDDATLRHQIMERLIMDQIILQMGQKMGVKISDEQLDQAIANIAKQNNMTLDQMRSRLAYDGLNYNTYRNQIRKEMIISEVRNNEVRRRITILPQEVESLAQQVGNQNDASTELNLSHILIPLPENPTSDQVNEAESQARAIVDQARNGADFGKLAIAHSADQQALNGGQMGWGRIQELPGIFAQALSTAKKGDIVGPIRSGVGFHILKVNDLRGESKNISVTEVHARHILLKPSPIMTDEQARVKLEQIAADIKSGKTTFAAAAKEFSQDPGSANQGGDLGWATPDIFDPAFRDALTRLNKGQMSAPVHSSFGWHLIELLDTRNVDKTDAAQKDRAYRMLMNRKFSEEAASWMQEQRASAYVKILSN
modifications: Alexa Fluor 488 (C5 maleimide) on the added N-terminal cysteine
notes: as for B2

Kd [3]: 1300 ± 300 nM
B10: Alexa Fluor 488-labelled Cys-SurA-core (domain or fragment)
chain: CAPQVVDKVAAVVNNGVVLESDVDGLMQSVKLNAAQARQQLPDDATLRHQIMERLIMDQIILQMGQKMGVKISDEQLDQAIANIAKQNNMTLDQMRSRLAYDGLNYNTYRNQIRKEMIISEVRNNEVRRRITILPQEVESLAQQVGNQNDASDAAQKDRAYRMLMNRKFSEEAASWMQEQRASAYVKILSN
modifications: Alexa Fluor 488 on the added N-terminal cysteine (maleimide)
notes: as for B3
